The record followed here is IntAct's records for PubMed 21139563.

B1: Importin-13 (Homo sapiens), O94829 (parent)
chain: MERREEQPGAAGAGAAPALDFTVENVEKALHQLYYDPNIENKNLAQKWLMQAQVSPQAWHFSWQLLQPDKVPEIQYFGASALHIKISRYWSDIPTDQYESLKAQLFTQITRFASGSKIVLTRLCVALASLALSMMPDAWPCAVADMVRLFQAEDSPVDGQGRCLALLELLTVLPEEFQTSRLPQYRKGLVRTSLAVECGAVFPLLEQLLQQPSSPSCVRQKVLKCFSSWVQLEVPLQDCEALIQAAFAALQDSELFDSSVEAIVNAISQPDAQRYVNTLLKLIPLVLGLQEQLRQAVQNGDMETSHGICRIAVALGENHSRALLDQVEHWQSFLALVNMIMFCTGIPGHYPVNETTSSLTLTFWYTLQDDILSFEAEKQAVYQQVYRPVYFQLVDVLLHKAQFPSDEEYGFWSSDEKEQFRIYRVDISDTLMYVYEMLGAELLSNLYDKLGRLLTSSEEPYSWQHTEALLYGFQSIAETIDVNYSDVVPGLIGLIPRISISNVQLADTVMFTIGALSEWLADHPVMINSVLPLVLHALGNPELSVSSVSTLKKICRECKYDLPPYAANIVAVSQDVLMKQIHKTSQCMWLMQALGFLLSALQVEEILKNLHSLISPYIQQLEKLAEEIPNPSNKLAIVHILGLLSNLFTTLDISHHEDDHEGPELRKLPVPQGPNPVVVVLQQVFQLIQKVLSKWLNDAQVVEAVCAIFEKSVKTLLDDFAPMVPQLCEMLGRMYSTIPQASALDLTRQLVHIFAHEPAHFPPIEALFLLVTSVTLTLFQQGPRDHPDIVDSFMQLLAQALKRKPDLFLCERLDVKAVFQCAVLALKFPEAPTVKASCGFFTELLPRCGEVESVGKVVQEDGRMLLIAVLEAIGGQASRSLMDCFADILFALNKHCFSLLSMWIKEALQPPGFPSARLSPEQKDTFSQQILRERVNKRRVKEMVKEFTLLCRGLHGTDYTADY

The experiment covers variants of B1. Conditions: with mgn_human MAGOH.
As to K802E, the “effect of a mutation on the interaction” value is recorded as “disrupting interaction”.

Take R803E: the “effect of a mutation on the interaction” value is listed as “disrupting interaction”.
